According to patent US20140357543A1:
Numbering of substitutions follows the chain as printed.

T1: alcalase (trade name "Alcalase 2.5L", Novozymes) (UniProt P00780)
T1 sequence (looked up): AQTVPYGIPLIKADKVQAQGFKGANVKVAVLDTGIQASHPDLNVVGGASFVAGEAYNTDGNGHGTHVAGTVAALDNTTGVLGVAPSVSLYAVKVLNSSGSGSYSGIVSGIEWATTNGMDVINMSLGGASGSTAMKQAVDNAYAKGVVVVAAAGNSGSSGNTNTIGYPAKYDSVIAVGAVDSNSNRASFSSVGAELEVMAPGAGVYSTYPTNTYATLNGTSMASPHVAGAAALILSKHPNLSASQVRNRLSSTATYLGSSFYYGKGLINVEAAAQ

B1: proteinaceous protease inhibitor of SEQ ID NO:40 (protein)
chain: TECGGGGGAKTSWPEVVGLSVEEAKKVILKDKPDADIVVLPVGSVVTADYRPNRVRIFVDIVAQTPHVG
B2: proteinaceous protease inhibitor of SEQ ID NO:41 (protein)
chain: MSSVEKKPEGVNTGAGDRHNLKTEWPELVGKSVEEAKKVILQDKSEAQIIVLPVGTIVTMEYRIDRVRLFVDKLDNIAQVPRVG
B3: proteinaceous protease inhibitor (BC) of SEQ ID NO:1, wheat-derived subtilisin/chymotrypsin inhibitor (protein)
chain: TDTGDHHNQKTEWPELVGKSVEEAKKVILQDKSEAQIVVLPVGTIVTMEYRIDRVRLFVDSLDKIAQVPRVG
B4: proteinaceous protease inhibitor of SEQ ID NO:6 (protein)
chain: B3 chain with V38I
B5: proteinaceous protease inhibitor of SEQ ID NO:5 (protein)
chain: B3 chain with V38L

biological target: T1, alcalase (trade name "Alcalase 2.5L", Novozymes); test: cell-based or functional assay

Row | Protease activity upon dilution (%) immediately after preparation [%] | Remaining activity (%) immediately after preparation [%] | Binder
1 | 100 | 53 | B1
2 | 8 | 0 | B2
3 | 10 | 0 | B3
4 | 10 | 0 | B4
5 | 100 | 11 | B5
